The source of these data is publication PMC5996960 (Molecular Biology of the Cell, 2018).

This assay has as its target T1, His6-tagged yeast cyclin C (S. cerevisiae, UniProt P47821 1-323).
T1 sequence (looked up): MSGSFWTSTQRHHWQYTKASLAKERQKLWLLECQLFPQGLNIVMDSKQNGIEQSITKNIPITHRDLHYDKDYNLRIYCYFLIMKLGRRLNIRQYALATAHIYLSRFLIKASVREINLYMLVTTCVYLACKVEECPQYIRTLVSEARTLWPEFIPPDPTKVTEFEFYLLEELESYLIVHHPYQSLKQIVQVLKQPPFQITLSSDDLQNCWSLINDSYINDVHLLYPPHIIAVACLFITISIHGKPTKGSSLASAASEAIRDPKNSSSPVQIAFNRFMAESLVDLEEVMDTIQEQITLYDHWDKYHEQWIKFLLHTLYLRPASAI
Put plainly: pull-down.

B1: GST-Med13^742-844 (domain or fragment, S. cerevisiae, UniProt P38931 742-844, looked up)
chain: DIPQTESPLKTVDSSIQPIESNIKMTLEDNNVTSNPSEFTPNMVNSEISNLPKDKSGIPEFTPADPNLSFESSSSLPFLLRHMPLASIPDIFITPTPVVTISE
Take B1: the binding result was “binds”.
